Here are results for three substances from patent publication US20250144178A1, “PHARMACEUTICAL COMPOSITION FOR CANCER TREATMENT COMPRISING FUSION PROTEIN INCLUDING IL-12 AND ANTI-FAP ANTIBODY AND ANTICANCER AGENT” (KANAPH THERAPEUTICS INC., priority 2022, published 2025).

Test [1] deals with mouse FAP (fibroblast activation protein alpha) overexpressed in B16F10 cells (B16F10-mFAP) (mouse) (UniProt P97321). Nature of the test: flow cytometry on B16F10-mFAP cells, anti-mouse IgG2a antibody alone. (In general: Flow cytometry measures light scatter and fluorescence of single cells or particles in a stream.)
In another test the target is B16F10. Nature of the test: flow cytometry on parental B16F10 cells, anti-mouse IgG2a antibody alone.
Test [2] concerns the target IL-12 receptor of human T cells (human) (UniProt P42701). Nature of the test: cell-based or functional assay.
Test [3] concerns the target human FAP (fibroblast activation protein alpha) overexpressed in HEK293 cells (HEK293-hFAP) (human) (UniProt Q12884). Put plainly: flow cytometry on HEK293-hFAP cells, anti-human IgG antibody alone.

Chain of IL-12 receptor of human T cells (human) (Q99665 24-862, chain 2 of 2, other chains not shown): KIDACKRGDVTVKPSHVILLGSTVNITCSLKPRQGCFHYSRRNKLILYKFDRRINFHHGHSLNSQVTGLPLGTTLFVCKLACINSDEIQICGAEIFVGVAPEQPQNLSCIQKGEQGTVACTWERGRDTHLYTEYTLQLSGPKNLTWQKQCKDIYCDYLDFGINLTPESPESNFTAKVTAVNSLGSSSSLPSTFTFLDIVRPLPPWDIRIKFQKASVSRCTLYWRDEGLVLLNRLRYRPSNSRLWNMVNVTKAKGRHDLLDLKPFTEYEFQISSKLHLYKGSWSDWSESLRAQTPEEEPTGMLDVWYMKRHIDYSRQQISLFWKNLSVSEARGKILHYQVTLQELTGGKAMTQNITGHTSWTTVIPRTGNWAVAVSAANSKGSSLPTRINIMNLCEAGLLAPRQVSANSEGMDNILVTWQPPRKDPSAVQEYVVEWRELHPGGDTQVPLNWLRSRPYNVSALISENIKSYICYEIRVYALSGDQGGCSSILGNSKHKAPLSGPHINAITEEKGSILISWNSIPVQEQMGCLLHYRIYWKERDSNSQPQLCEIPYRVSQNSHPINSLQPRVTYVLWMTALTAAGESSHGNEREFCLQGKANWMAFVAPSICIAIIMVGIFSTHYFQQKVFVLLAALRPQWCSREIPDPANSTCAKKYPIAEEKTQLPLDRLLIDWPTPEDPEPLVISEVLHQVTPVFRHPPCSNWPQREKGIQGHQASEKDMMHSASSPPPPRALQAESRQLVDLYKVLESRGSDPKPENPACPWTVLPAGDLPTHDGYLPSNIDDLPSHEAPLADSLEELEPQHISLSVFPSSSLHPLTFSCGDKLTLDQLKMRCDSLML
Chain of mouse FAP (fibroblast activation protein alpha) overexpressed in B16F10 cells (B16F10-mFAP) (mouse) (P97321 whole entry): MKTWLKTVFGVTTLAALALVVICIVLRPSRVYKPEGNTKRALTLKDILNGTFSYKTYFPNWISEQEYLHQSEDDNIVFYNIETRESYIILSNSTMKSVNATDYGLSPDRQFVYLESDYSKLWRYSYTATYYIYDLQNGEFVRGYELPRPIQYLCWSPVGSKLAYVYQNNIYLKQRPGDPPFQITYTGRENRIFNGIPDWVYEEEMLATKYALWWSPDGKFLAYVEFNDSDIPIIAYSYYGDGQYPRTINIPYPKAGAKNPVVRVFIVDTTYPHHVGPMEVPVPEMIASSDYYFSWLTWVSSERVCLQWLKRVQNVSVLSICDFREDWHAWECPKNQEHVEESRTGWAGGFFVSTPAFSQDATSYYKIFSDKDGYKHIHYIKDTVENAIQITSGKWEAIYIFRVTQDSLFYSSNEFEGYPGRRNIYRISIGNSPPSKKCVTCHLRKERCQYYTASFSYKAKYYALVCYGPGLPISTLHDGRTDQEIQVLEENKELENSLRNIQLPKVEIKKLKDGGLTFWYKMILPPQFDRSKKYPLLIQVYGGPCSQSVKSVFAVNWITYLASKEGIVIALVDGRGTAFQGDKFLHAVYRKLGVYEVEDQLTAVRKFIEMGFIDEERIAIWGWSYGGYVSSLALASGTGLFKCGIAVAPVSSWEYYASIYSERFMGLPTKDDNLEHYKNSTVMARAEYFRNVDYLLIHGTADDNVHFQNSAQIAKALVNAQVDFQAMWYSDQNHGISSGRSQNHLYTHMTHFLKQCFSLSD
Chain of human FAP (fibroblast activation protein alpha) overexpressed in HEK293 cells (HEK293-hFAP) (human) (Q12884 whole entry): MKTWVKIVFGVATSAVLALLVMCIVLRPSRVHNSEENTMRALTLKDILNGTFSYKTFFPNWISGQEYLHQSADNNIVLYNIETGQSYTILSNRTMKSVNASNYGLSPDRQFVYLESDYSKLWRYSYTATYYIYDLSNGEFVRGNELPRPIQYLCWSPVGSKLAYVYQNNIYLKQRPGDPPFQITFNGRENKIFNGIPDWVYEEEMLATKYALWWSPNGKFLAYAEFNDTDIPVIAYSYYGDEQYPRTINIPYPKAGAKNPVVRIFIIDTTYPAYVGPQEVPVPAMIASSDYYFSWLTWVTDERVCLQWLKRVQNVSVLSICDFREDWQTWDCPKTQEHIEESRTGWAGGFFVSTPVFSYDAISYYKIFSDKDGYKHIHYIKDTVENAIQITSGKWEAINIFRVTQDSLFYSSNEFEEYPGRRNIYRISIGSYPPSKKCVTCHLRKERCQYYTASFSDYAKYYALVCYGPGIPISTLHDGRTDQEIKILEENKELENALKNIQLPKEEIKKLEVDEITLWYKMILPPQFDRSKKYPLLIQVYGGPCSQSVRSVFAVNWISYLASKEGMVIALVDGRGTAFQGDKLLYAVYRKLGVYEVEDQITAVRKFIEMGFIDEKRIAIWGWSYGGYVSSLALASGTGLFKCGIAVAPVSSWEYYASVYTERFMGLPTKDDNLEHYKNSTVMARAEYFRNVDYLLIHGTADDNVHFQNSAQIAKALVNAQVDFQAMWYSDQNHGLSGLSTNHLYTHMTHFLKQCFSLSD

Regarding 2nd Ab only (antibody), the percent of cells in the positive gate (mFAP-PE) in test [1] is 3.44%; with B16F10, 1.04%.

Consider “recombinant human IL-12 (from UniProt P29459 23-219; P29460 23-328) (ligand)”, for which the half maximal effective concentration (EC50) of p-STAT4 (Tyr693), AlphaLISA, activated human T cells in test [2] came to 8.95 pM.

Substance 2nd only (antibody) returned a percent of cells in the positive gate (hFAP-PE) in test [3] of 0.16%.
